We go through five molecules from patent publication US20140087995A1 (published 2014).

Numbered stars: 1 amine (or outer) side, 2 acyl side, 3 side chain; on linkers, the order of the positions; unused ones are H or OH. Bridge positions count the residues as written; N and C are the ends. Side chains are listed from the residue outwards. Ends that are not written are not given here. * marks the point of attachment. C20 diacid = O=C(O)CCCCCCCCCCCCCCCCCCC(=O)*; γGlu = O=C(O)[C@H](CCC(=O)[*:2])N[*:1]; AEEA = NCCOCCOCC(=O)O

The target in assay [1] is T1, rat calcitonin receptor (rat, UniProt P32214 25-516).
T1 construct: whole, on cells; Used as membranes prepared from the transfected cells; also called rCTR; rCT
T1 sequence (looked up): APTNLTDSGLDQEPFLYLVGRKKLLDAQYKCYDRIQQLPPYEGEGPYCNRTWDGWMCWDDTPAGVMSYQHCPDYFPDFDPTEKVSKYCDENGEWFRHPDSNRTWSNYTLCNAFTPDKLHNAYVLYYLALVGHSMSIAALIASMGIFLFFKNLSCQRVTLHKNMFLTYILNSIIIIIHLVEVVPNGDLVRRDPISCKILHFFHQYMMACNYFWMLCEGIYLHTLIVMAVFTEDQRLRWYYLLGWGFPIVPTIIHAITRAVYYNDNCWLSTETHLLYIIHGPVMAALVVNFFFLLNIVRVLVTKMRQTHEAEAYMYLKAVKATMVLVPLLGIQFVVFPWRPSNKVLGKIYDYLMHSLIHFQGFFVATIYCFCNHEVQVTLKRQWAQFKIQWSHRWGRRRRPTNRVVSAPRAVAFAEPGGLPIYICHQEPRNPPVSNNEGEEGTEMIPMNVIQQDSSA
Description: ratio of binding IC50 at rat calcitonin receptor to IC50 at rat amylin receptor (reference).

For assay [2], the target named is T2, human calcitonin receptor (human, UniProt P30988 25-474).
T2 construct: whole, on cells; Used as membranes prepared from the transfected cells; also called hCTR; hCT
T2 sequence (looked up): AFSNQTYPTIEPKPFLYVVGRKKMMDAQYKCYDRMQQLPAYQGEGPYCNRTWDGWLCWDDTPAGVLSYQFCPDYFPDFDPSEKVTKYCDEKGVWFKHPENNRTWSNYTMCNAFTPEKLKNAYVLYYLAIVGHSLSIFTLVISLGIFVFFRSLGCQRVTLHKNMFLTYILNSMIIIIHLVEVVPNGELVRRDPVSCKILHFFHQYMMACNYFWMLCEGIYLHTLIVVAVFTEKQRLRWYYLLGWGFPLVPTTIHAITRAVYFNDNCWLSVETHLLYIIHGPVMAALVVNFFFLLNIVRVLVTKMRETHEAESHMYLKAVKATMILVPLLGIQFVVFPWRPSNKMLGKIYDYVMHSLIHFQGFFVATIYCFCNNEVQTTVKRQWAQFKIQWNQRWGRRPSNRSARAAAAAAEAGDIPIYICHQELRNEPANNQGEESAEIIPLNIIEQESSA
Description: ratio of binding IC50 at human calcitonin receptor to IC50 at human amylin receptor (reference). The gist of the method: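 Competition binding by SPA uses membrane preparations (35 ng/μL final) in pH 7.4 Hepes buffer with 1 mM CaCl2 and 5 mM MgCl₂. Incubation lasts 120 min at 25° C, and IC₅₀ comes from one-site fitting.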

Assay [3] addresses T1, rat calcitonin receptor. Description: SPA competition with 125I-calcitonin, membranes with rat calcitonin receptor (Assay VIII).

B1: N^ε1-[2-[2-[2-[[(4S)-4-carboxy-4-(19-carboxynonadecanoylamino)butanoyl]amino]ethoxy]ethoxy]acetyl]-[Ser14,Arg17,Pro21,Pro27,Pro31]-h-amylin (peptide)
peptide: K([AEEA-γGlu-C20 diacid])CNTATCATQRLASFLRHSSPNFGAIPSSTPVGSNTY-NH2
modifications: disulfide 2-7; N-terminus assumed
SMILES: CC[C@H](C)[C@H](NC(=O)[C@H](C)NC(=O)CNC(=O)[C@H](Cc1ccccc1)NC(=O)[C@H](CC(N)=O)NC(=O)[C@@H]1CCCN1C(=O)[C@H](CO)NC(=O)[C@H](CO)NC(=O)[C@H](Cc1c[nH]cn1)NC(=O)[C@H](CCCNC(=N)N)NC(=O)[C@H](CC(C)C)NC(=O)[C@H](Cc1ccccc1)NC(=O)[C@H](CO)NC(=O)[C@H](C)NC(=O)[C@H](CC(C)C)NC(=O)[C@H](CCCNC(=N)N)NC(=O)[C@H](CCC(N)=O)NC(=O)[C@@H](NC(=O)[C@H](C)NC(=O)[C@@H]1CSSC[C@H](NC(=O)[C@@H](N)CCCCNC(=O)COCCOCCNC(=O)CC[C@H](NC(=O)CCCCCCCCCCCCCCCCCCC(=O)O)C(=O)O)C(=O)N[C@@H](CC(N)=O)C(=O)N[C@@H]([C@@H](C)O)C(=O)N[C@@H](C)C(=O)N[C@@H]([C@@H](C)O)C(=O)N1)[C@@H](C)O)C(=O)N1CCC[C@H]1C(=O)N[C@@H](CO)C(=O)N[C@@H](CO)C(=O)N[C@H](C(=O)N1CCC[C@H]1C(=O)N[C@H](C(=O)NCC(=O)N[C@@H](CO)C(=O)N[C@@H](CC(N)=O)C(=O)N[C@H](C(=O)N[C@@H](Cc1ccc(O)cc1)C(N)=O)[C@@H](C)O)C(C)C)[C@@H](C)O
notes: Analogue of human amylin; disulfide and C-terminal amide as told for h-amylin; also called compound 73
In general, IC50 refers to the concentration that gives 50% inhibition. Turning to B1, the “Ratio rCT/rAmylin binding” value with rat calcitonin receptor [1] is 178. For the same molecule, in assay [2], the “Ratio hCT/hAmylin binding” value was determined as 51.7. In the assay with rat calcitonin receptor [3], the IC50 is 50.3 nM.

B2: N^ε1-[(4S)-4-carboxy-4-(19-carboxynonadecanoylamino)butanoyl]-[Arg14,Arg17,Pro21,Pro27,Pro34]-h-amylin (peptide)
peptide: K([γGlu-C20 diacid])CNTATCATQRLARFLRHSSPNFGAIPSSTNVGPNTY-NH2
modifications: disulfide 2-7; N-terminus assumed
SMILES: CC[C@H](C)[C@H](NC(=O)[C@H](C)NC(=O)CNC(=O)[C@H](Cc1ccccc1)NC(=O)[C@H](CC(N)=O)NC(=O)[C@@H]1CCCN1C(=O)[C@H](CO)NC(=O)[C@H](CO)NC(=O)[C@H](Cc1c[nH]cn1)NC(=O)[C@H](CCCNC(=N)N)NC(=O)[C@H](CC(C)C)NC(=O)[C@H](Cc1ccccc1)NC(=O)[C@H](CCCNC(=N)N)NC(=O)[C@H](C)NC(=O)[C@H](CC(C)C)NC(=O)[C@H](CCCNC(=N)N)NC(=O)[C@H](CCC(N)=O)NC(=O)[C@@H](NC(=O)[C@H](C)NC(=O)[C@@H]1CSSC[C@H](NC(=O)[C@@H](N)CCCCNC(=O)CC[C@H](NC(=O)CCCCCCCCCCCCCCCCCCC(=O)O)C(=O)O)C(=O)N[C@@H](CC(N)=O)C(=O)N[C@@H]([C@@H](C)O)C(=O)N[C@@H](C)C(=O)N[C@@H]([C@@H](C)O)C(=O)N1)[C@@H](C)O)C(=O)N1CCC[C@H]1C(=O)N[C@@H](CO)C(=O)N[C@@H](CO)C(=O)N[C@H](C(=O)N[C@@H](CC(N)=O)C(=O)N[C@H](C(=O)NCC(=O)N1CCC[C@H]1C(=O)N[C@@H](CC(N)=O)C(=O)N[C@H](C(=O)N[C@@H](Cc1ccc(O)cc1)C(N)=O)[C@@H](C)O)C(C)C)[C@@H](C)O
notes: Analogue of human amylin; disulfide and C-terminal amide as told for h-amylin; also called compound 65
Regarding B2, the “Ratio rCT/rAmylin binding” value with rat calcitonin receptor [1] came out at 93.2. Moreover, in assay [2], the “Ratio hCT/hAmylin binding” value was 82.4. Besides, in the assay with rat calcitonin receptor [3], the IC50 amounted to 108 nM.

B3: N^ε1-[(4S)-4-carboxy-4-(19-carboxynonadecanoylamino)butanoyl]-[Ala14,Arg17,Pro21,Pro27,His34]-h-amylin (peptide)
peptide: K([γGlu-C20 diacid])CNTATCATQRLAAFLRHSSPNFGAIPSSTNVGHNTY-NH2
modifications: disulfide 2-7; N-terminus assumed
SMILES: CC[C@H](C)[C@H](NC(=O)[C@H](C)NC(=O)CNC(=O)[C@H](Cc1ccccc1)NC(=O)[C@H](CC(N)=O)NC(=O)[C@@H]1CCCN1C(=O)[C@H](CO)NC(=O)[C@H](CO)NC(=O)[C@H](Cc1c[nH]cn1)NC(=O)[C@H](CCCNC(=N)N)NC(=O)[C@H](CC(C)C)NC(=O)[C@H](Cc1ccccc1)NC(=O)[C@H](C)NC(=O)[C@H](C)NC(=O)[C@H](CC(C)C)NC(=O)[C@H](CCCNC(=N)N)NC(=O)[C@H](CCC(N)=O)NC(=O)[C@@H](NC(=O)[C@H](C)NC(=O)[C@@H]1CSSC[C@H](NC(=O)[C@@H](N)CCCCNC(=O)CC[C@H](NC(=O)CCCCCCCCCCCCCCCCCCC(=O)O)C(=O)O)C(=O)N[C@@H](CC(N)=O)C(=O)N[C@@H]([C@@H](C)O)C(=O)N[C@@H](C)C(=O)N[C@@H]([C@@H](C)O)C(=O)N1)[C@@H](C)O)C(=O)N1CCC[C@H]1C(=O)N[C@@H](CO)C(=O)N[C@@H](CO)C(=O)N[C@H](C(=O)N[C@@H](CC(N)=O)C(=O)N[C@H](C(=O)NCC(=O)N[C@@H](Cc1c[nH]cn1)C(=O)N[C@@H](CC(N)=O)C(=O)N[C@H](C(=O)N[C@@H](Cc1ccc(O)cc1)C(N)=O)[C@@H](C)O)C(C)C)[C@@H](C)O
notes: Analogue of human amylin; disulfide and C-terminal amide as told for h-amylin; also called compound 93
For B3, the “Ratio rCT/rAmylin binding” value with rat calcitonin receptor [1] was 83.2. Moreover, the “Ratio hCT/hAmylin binding” value in assay [2] was 101. Also, the IC50 with rat calcitonin receptor [3] came out at 131 nM.

B4: N^ε1-[(4S)-4-carboxy-4-(19-carboxynonadecanoylamino)butanoyl]-[Arg14,Arg17,Pro21,Pro27,Pro31]-h-amylin (peptide)
peptide: K([γGlu-C20 diacid])CNTATCATQRLARFLRHSSPNFGAIPSSTPVGSNTY-NH2
modifications: disulfide 2-7; N-terminus assumed
SMILES: CC[C@H](C)[C@H](NC(=O)[C@H](C)NC(=O)CNC(=O)[C@H](Cc1ccccc1)NC(=O)[C@H](CC(N)=O)NC(=O)[C@@H]1CCCN1C(=O)[C@H](CO)NC(=O)[C@H](CO)NC(=O)[C@H](Cc1c[nH]cn1)NC(=O)[C@H](CCCNC(=N)N)NC(=O)[C@H](CC(C)C)NC(=O)[C@H](Cc1ccccc1)NC(=O)[C@H](CCCNC(=N)N)NC(=O)[C@H](C)NC(=O)[C@H](CC(C)C)NC(=O)[C@H](CCCNC(=N)N)NC(=O)[C@H](CCC(N)=O)NC(=O)[C@@H](NC(=O)[C@H](C)NC(=O)[C@@H]1CSSC[C@H](NC(=O)[C@@H](N)CCCCNC(=O)CC[C@H](NC(=O)CCCCCCCCCCCCCCCCCCC(=O)O)C(=O)O)C(=O)N[C@@H](CC(N)=O)C(=O)N[C@@H]([C@@H](C)O)C(=O)N[C@@H](C)C(=O)N[C@@H]([C@@H](C)O)C(=O)N1)[C@@H](C)O)C(=O)N1CCC[C@H]1C(=O)N[C@@H](CO)C(=O)N[C@@H](CO)C(=O)N[C@H](C(=O)N1CCC[C@H]1C(=O)N[C@H](C(=O)NCC(=O)N[C@@H](CO)C(=O)N[C@@H](CC(N)=O)C(=O)N[C@H](C(=O)N[C@@H](Cc1ccc(O)cc1)C(N)=O)[C@@H](C)O)C(C)C)[C@@H](C)O
notes: Analogue of human amylin; disulfide and C-terminal amide as told for h-amylin; also called compound 63
Take B4: the “Ratio rCT/rAmylin binding” value with rat calcitonin receptor [1] came to 35.6. The “Ratio hCT/hAmylin binding” value in assay [2] worked out at 157. Also, the IC50 with rat calcitonin receptor [3] worked out at 124 nM.

B5: N^ε1-[2-[2-[2-[[(4S)-4-carboxy-4-(19-carboxynonadecanoylamino)butanoyl]amino]ethoxy]ethoxy]acetyl]-[Thr14,Arg17,Pro21,Pro27,Pro31]-h-amylin (peptide)
peptide: K([AEEA-γGlu-C20 diacid])CNTATCATQRLATFLRHSSPNFGAIPSSTPVGSNTY-NH2
modifications: disulfide 2-7; N-terminus assumed
SMILES: CC[C@H](C)[C@H](NC(=O)[C@H](C)NC(=O)CNC(=O)[C@H](Cc1ccccc1)NC(=O)[C@H](CC(N)=O)NC(=O)[C@@H]1CCCN1C(=O)[C@H](CO)NC(=O)[C@H](CO)NC(=O)[C@H](Cc1c[nH]cn1)NC(=O)[C@H](CCCNC(=N)N)NC(=O)[C@H](CC(C)C)NC(=O)[C@H](Cc1ccccc1)NC(=O)[C@@H](NC(=O)[C@H](C)NC(=O)[C@H](CC(C)C)NC(=O)[C@H](CCCNC(=N)N)NC(=O)[C@H](CCC(N)=O)NC(=O)[C@@H](NC(=O)[C@H](C)NC(=O)[C@@H]1CSSC[C@H](NC(=O)[C@@H](N)CCCCNC(=O)COCCOCCNC(=O)CC[C@H](NC(=O)CCCCCCCCCCCCCCCCCCC(=O)O)C(=O)O)C(=O)N[C@@H](CC(N)=O)C(=O)N[C@@H]([C@@H](C)O)C(=O)N[C@@H](C)C(=O)N[C@@H]([C@@H](C)O)C(=O)N1)[C@@H](C)O)[C@@H](C)O)C(=O)N1CCC[C@H]1C(=O)N[C@@H](CO)C(=O)N[C@@H](CO)C(=O)N[C@H](C(=O)N1CCC[C@H]1C(=O)N[C@H](C(=O)NCC(=O)N[C@@H](CO)C(=O)N[C@@H](CC(N)=O)C(=O)N[C@H](C(=O)N[C@@H](Cc1ccc(O)cc1)C(N)=O)[C@@H](C)O)C(C)C)[C@@H](C)O
notes: Analogue of human amylin; disulfide and C-terminal amide as told for h-amylin; also called compound 75
On to B5, for which the “Ratio rCT/rAmylin binding” value with rat calcitonin receptor [1] came out at 110. The “Ratio hCT/hAmylin binding” value in assay [2] was 91.4. Further, in the assay with rat calcitonin receptor [3], the IC50 amounted to 442 nM.
